From US20080220446A1, “Method for Detecting and/or Removing Protein and/or Peptide Comprising a Cross-Beta Structure From an Aqueous Solution Comprising a Protein” (priority 2005, published 2008)

Columns and labels:
[1] = ThT fluorescence enhancement by biopharmaceuticals; format: physicochemical; details: after alkylation of cysteine residues
Protocol: (§1) Fluorescence of ThT—protein/peptide adducts was measured as follows. […] Fluorescence was measured at 485 nm upon excitation at 435 nm. Background signals from buffer, buffer with ThT and protein/peptide solution without ThT were subtracted from corresponding measurements with protein solution incubated with ThT. Regularly, fluorescence of Aβ was used as a positive control, and fluorescence of FP10, a non-amyloid fibrin fragment^16, was used as a negative control. Fluorescence was measured in triplicate on a Hitachi F-4500 fluorescence spectrophotometer (Ltd., Tokyo, Japan).
β2-GPI was reduced and alkylated as follows. Sixhundredforty μl of β2-GPI stock was mixed with 640 μl of 8 M Urea (cooled solution) in 0.1 M Tris pH-8.2. […]
(§2) Protein therapeutics were obtained from the local hospital pharmacy and analyzed within the expiry limits as stated by the manufacturers.
Fluorescence of Thioflavin T (ThT; Sigma T-3516, St. Louis, Mo., USA) and Congo red (CR; Aldrich Chemical Company Inc., Milwaukee, Wis., USA) was measured on a Hitachi F-4500 spectrophotometer at an excitation wavelength of 435 nm and emission wavelength of 485 nm for ThT and an excitation wavelength of 550 nm and emission wavelength of 595 nm for Congo red. […] Fluorescence was measured in triplicate. Background fluorescence of both protein in buffer and dye-solution were subtracted from the total fluorescence signal. […]

tPA = tPA (Homo sapiens, UniProt P00750); assay: tPA/plasminogen activation assay; format: biochemical; details: β2gpi exposed to cardiolipin or alkylated, 100 μg/ml
Protocol: β2-GPI was reduced and alkylated as follows. Sixhundredforty μl of β2-GPI stock was mixed with 640 μl of 8 M Urea (cooled solution) in 0.1 M Tris pH-8.2. The solution was degassed with N2 gas for approximately 6 minutes. From a 1 M DTT stock 12.8 μl was added to the solution, mixed and incubated for 3 hours at room temperature. A 1 M Iodoacetamide (Sigma; I-6125) was prepared, of which 25.6 μl was added to the β2-GPI reaction mixture. The solution was subsequently dialysed against PBS. […] Signals obtained with alkyl-β2gpi are compared with those obtained with native β2gpi starting material and with positive control acid/heat denatured amyloid-like misfolded γ-globulins.
Exiqon Peptide Immobilizer plates were blocked for 1 hour with PBS, 1% Tween20 and rinsed twice with distilled water. The conversion of the chromogenic substrate S-2251 (Chromogenix, Italy) by plasmin was kinetically measured at 37° C. on a Spectramax340 microplate reader at a wavelength of 405 nm. […] Denatured γ-globulins (100 μg/ml) with amyloid-like structure was used as reference and positive control. Lyophilized γ-globulins (Sigma, Mo., USA) were dissolved in a 1(:)1 volume ratio of 1,1,1,3,3,3-hexafluoro-2-propanol and trifluoro-acetic acid and subsequently dried under air. […]
as §2

[2] = Thioflavin T fluorescence of protein solutions; format: physicochemical; details: conclusion from ThT fluorescence, Plg-activation assay and TEM
Protocol: as §1
Formulated protein therapeutics were obtained from the local hospital pharmacy and were used as supplied by the manufacturers. […] Lyophilized therapeutics were dissolved according to the manufacturers recommendations. GH, zinc-insulin, Cealb and gelatin were stored at −20, 4, room temperature, 37 and 65° C. Other protein therapeutics were only kept at 4° C., and assayed for the presence of cross-β structure at shown time points. Enhancement in fluorescence of ThT and Congo red was measured with all formulated protein therapeutics. […]
ThT fluorescence of β2GPI was measured as follows. […] In the ThT fluorescence assay, fluorescence of β2GPI in buffer, of CL or DXS500k in buffer, of buffer and ThT alone, and of β2GPI-CL adducts and β2GPI-DXS500k adducts, with or without ThT, was recorded as described above (section ThT fluorescence). In addition, TEM images were recorded with CL, β2GPI from human plasma, with or without CL, and with recombinant β2GPI, as described^5.
To prepare structurally altered ovalbumin (OVA) with amyloid cross-β structures, purified OVA (Sigma, A-7641, lot 071k7094) was heated to 85° C. […] Native OVA (nOVA) and heat-denatured OVA (dOVA) were tested in the ThT fluorescence assay and in the Plg-activation assay. In the fluorescence assay and in the Plg-activation assay, 25 and 100 μg ml^−1 nOVA and dOVA were tested, respectively. […]
MSA (#126674, Calbiochem) was dissolved in 8 M urea, 100 mM Tris-HCl pH 8.2, at 10 mg ml^−1 final concentration. […] The presence of aggregates or fibrils was analyzed using TEM. […]

fibronectin F4,5 = target: T1, fibronectin F4,5 (Homo sapiens, UniProt P02751); assay: Affinity determination ELISA, fibronectin F4,5 on coated (mis)folded proteins; format: binding; details: coated protein as labelled
T1 construct: human fibronectin finger 4,5 (Fn F4,5) fragment; made in house; host or cells: HEK293E
Text: (§3) Synthetic genes of human BiP, human fibronectin finger 4,5 (Fn F4,5) fragment, and human tissue-type plasminogen activator finger EGF (tPA F-EGF) fragment were ordered from Geneart (Regensburg, Germany). These DNA constructs were digested using BamHI and NotI, and ligated into vector pABC674 (ABC-expression facility, Utrecht University, The Netherlands), which contains a carboxy-terminal FLAG-tag—His-tag. HEK293E cells were transiently transfected with these constructs using the polyethylene-imine method, and grown for 5-6 days.
(§4) Denatured proteins and their native controls BSA (Sigma, A7906), glycated BSA, Hb (Sigma, H7605), glycated Hb, ovalbumin (Sigma, A6741), heat-denatured misfolded ovalbumin, human γ-globulins (Sigma, G4386), heat-denatured misfolded γ-globulins, alkyl-γ-globulins, lysozyme (ICN Biochemicals, 100831) and alkyl-lysozyme were coated on ELISA plates (Greiner Microlon high-binding, 655092) in 50 mM NaHCO3-buffer pH 9.6. The plates were blocked using Blocking reagent (Roche 1112589). […] Bound protein is detected by the FLAG-tag using 1:3000 anti-FLAG-HRP (Sigma A-8592) in PBS-T, or by 1:1000 Ni-NTA-HRP (Qiagen 34530) in PBS-T. The HRP reaction Is performed using the TMB substrate (Biosource 4501103 or Tebu Bio 101TMB100-500), stopped using 10% H2SO4 and absorbance was measured at 450 nm.

tPA F-EGF = target: T2, tPA F-EGF (Homo sapiens, UniProt P00750); assay: Affinity determination ELISA, tPA F-EGF on coated (mis)folded proteins; format: binding; details: coated protein as labelled, relative to native control
T2 construct: made in house; host or cells: HEK293E
T2 sequence (P00750 36-120 limits assumed): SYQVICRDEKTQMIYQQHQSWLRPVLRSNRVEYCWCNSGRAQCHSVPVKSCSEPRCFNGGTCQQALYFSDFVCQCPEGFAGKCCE
Text: as §3, §4

T1 sequence (P02751 182-276 limits assumed): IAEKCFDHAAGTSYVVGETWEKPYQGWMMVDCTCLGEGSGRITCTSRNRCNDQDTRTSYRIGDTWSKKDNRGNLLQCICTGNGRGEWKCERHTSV
Chain of tPA (P00750 36-562): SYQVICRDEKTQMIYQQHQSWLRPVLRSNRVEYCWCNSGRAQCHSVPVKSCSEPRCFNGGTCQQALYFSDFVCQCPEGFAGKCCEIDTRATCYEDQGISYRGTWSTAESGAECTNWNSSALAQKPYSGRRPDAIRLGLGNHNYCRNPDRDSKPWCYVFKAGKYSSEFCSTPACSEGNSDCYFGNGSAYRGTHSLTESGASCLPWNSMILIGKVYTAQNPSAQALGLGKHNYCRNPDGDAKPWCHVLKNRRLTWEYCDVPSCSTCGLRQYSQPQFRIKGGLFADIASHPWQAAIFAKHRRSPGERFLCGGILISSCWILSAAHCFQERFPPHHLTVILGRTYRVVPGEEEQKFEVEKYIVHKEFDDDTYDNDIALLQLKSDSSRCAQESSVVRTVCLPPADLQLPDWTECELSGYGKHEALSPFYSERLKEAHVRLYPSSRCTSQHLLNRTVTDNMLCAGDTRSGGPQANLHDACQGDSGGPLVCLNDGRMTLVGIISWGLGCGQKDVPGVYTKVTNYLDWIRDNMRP

Molecule	Thioflavin T fluorescence [1]	ability to activate tPA/plasminogen (tPA)	presence of cross-β structure conformation [2]	affinity for fibronectin F4,5 (fibronectin F4,5)	binding of tPA F-EGF (tPA F-EGF)
alkyl-β2gpi: reduced and alkylated β2-glycoprotein I (protein) GRTCPKPDDLPFSTVVPLKTFYEPGEEITYSCKPGYVSRGGMRKFICPLTGLWPINTLKCTPRVCPFAGILENGAVRYTTFEYPNTISFSCNTGFYLNGADSAKCTEEGKWSPELPVCAPIICPPPSIPTFATLRVYKPSAGNNSLYRDTAVFECLPQHAMFGNDTITCTTHGNWTKLPECREVKCPFPSRPDNGFVNYPAKPTLYYKDKATFGCHDGYSLDGPEEIECTKLGNWSAMPSCKASCKVPVKKATVVYQGERVKIQEKFKNGMLHGDKVSFFCKNKEKKCSYTEDAQCIDGTIEVPKCFKEHSSLAFWKTDASDVKPC	enhanced Thioflavin T fluorescence	amyloid-like properties			
heat-denatured OVA: ovalbumin heated to 85° C. (protein) GSIGAASMEFCFDVFKELKVHHANENIFYCPIAIMSALAMVYLGAKDSTRTQINKVVRFDKLPGFGDSIEAQCGTSVNVHSSLRDILNQITKPNDVYSFSLASRLYAEERYPILPEYLQCVKELYRGGLEPINFQTAADQARELINSWVESQTNGIIRNVLQPSSVDSQTAMVLVNAIVFKGLWEKAFKDEDTQAMPFRVTEQESKPVQMMYQIGLFRVASMASEKMKILELPFASGTMSMLVLLPDEVSGLEQLESIINFEKLTEWTSSNVMEERKIKVYLPRMKMEEKYNLTSVLMAMGITDVFSSSANLSGISSAESLKISQAVHAAHAEINEAGREVVGSAEAGVDAASVSEEFRADHPFLFCIKHIATNAVLFFGRCVSP			comprise the cross-β structure conformation	clear difference in binding affinity	Much lower binding
